One block for each molecule: values may come before it.
Tests used:
[1] = tested on: Jurkat T cells; experiment: Bulk plate co-culture of TCR-expressing Jurkat T cells with B cells presenting cognate peptide, CD69 surface expression; type: cell-based; settings: Ca^2+ in equimolar concentration to EDTA in the medium
[2] = tested on: Jurkat cells; experiment: Droplet co-culture of B and T cells, CD69 surface expression by flow cytometry; type: cell-based; settings: 8 mM Ca^2+ in T cell suspension, 2 mM EDTA in B cell suspension
Description: One day prior to encapsulation, BOLETH cells were cultured in the presence of cognate or negative control peptides at a final concentration of 1 μM. Cells were collected the next day, centrifuged at 300 g for 5 min, then resuspended in B-cell medium at a final concentration of 1.4×10^7 cells/ml. These were further supplemented with same peptide and with or without EDTA. TCR-expressing Jurkat cells were centrifuged at 300 g and resuspended in B-cell medium at a concentration of 4×10^7 cells/ml. These were then further supplemented with respective concentrations of calcium. BOLETH, Jurkat, and detergent-containing fractions were connected to the microfluidic chip as described. Pressures were applied using an OB1 MK3+ and the droplet emulsion was collected into a 1.5 ml reaction tube containing oil.
Droplets were incubated at 37° C. in a 5% CO2 humidified incubator. Following overnight incubation, droplet emulsions were disrupted by adding two volumes of Pico-Break 1 (SPHERE FLUIDICS). Tubes were quickly inverted several times and centrifuged for 15 s at 300 rpm to facilitate separation of the cell-containing fraction. […] Tubes were centrifuged for 5 min at 300 g and cell pellets were subsequently resuspended in 100 μl of FACS buffer and were analyzed via flow cytometry. […]

[3] = biological target: T1, CD19 on BOLETH cells (UniProt P15391 20-556, limits assumed); experiment: flow cytometry; BOLETH cells stained with supernatant of HEK cells transfected with tandem (T2A) constructs, anti-HA antibody
T1 construct: whole, on cells; also called B cell-specific transmembrane protein CD19
T1 sequence (looked up): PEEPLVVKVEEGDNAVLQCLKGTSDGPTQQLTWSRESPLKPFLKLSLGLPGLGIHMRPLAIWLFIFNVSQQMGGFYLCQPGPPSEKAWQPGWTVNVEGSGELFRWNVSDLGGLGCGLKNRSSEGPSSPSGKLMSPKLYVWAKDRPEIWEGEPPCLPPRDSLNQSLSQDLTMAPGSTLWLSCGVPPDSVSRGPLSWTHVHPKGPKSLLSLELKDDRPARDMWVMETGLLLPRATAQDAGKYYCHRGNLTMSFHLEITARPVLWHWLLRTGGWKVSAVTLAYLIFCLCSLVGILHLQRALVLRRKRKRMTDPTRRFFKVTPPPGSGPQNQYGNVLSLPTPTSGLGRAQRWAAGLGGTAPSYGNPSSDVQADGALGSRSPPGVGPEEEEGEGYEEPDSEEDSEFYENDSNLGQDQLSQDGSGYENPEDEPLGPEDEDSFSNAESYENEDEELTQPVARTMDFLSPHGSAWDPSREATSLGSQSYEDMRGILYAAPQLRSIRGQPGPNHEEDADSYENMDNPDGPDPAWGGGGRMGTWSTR

[4] = biological target: T1, CD19 on BOLETH cells; experiment: flow cytometry; scFv secreted by Jurkat TT2 reporter cells in co-culture with BOLETH cells, 0.1 nM-10 µM cognate peptide
[5] = tested on: BOLETH cells; experiment: Co-culture of Jurkat TT2 scFv reporter cells with BOLETH cells in presence of cognate peptide, flow cytometry; type: cell-based; settings: 0.1 nM-10 μM cognate peptide; versus V5-tagged αCD20-scFv
[6] = tested on: TCR signaling; experiment: Co-culture of SKW-3 cells expressing sleeping beauty transposon reporters with peptide-loaded B cells (GFP / HA reporter); type: cell-based; settings: 1 μM peptide
Description: (§1) Sleeping beauty transposon reporter constructs were transfected together with transposases into T cells, 5 to 1 ratio, using the Neon transfection system following the manufacturer's protocol. The voltages used for Jurkat cells were 1350V/[…]/3 pulse, and for SKW-3 cells 1500V, […] and 1 pulse were used as settings. 48-72 hours after transfection, the cells were selected using […] Blasticidin for Jurkat and […] Blasticidin for SKW-3 cells.
(§2) Co-culture experiments were performed using round-bottom 96-well plates. P10-NBV Jurkat and SKW-3 reporter cells and B cells were seeded at a 1:1 ratio into each well. For peptide co-culture experiments, either cognate peptide or mismatched peptide is added to each well and incubated for 16 hours. For minigene-based co-culture experiments, minigene-transduced B cells harboring either the cognate of mismatch minigenes were used. Next day the cells are spun down and stained for Flow cytometry.

[7] = tested on: TCR signaling; experiment: Co-culture of Jurkat reporter cells carrying synthetic promoters with peptide-loaded B cells (GFP / HA reporter); type: cell-based
Description: as §1, §2

Molecule: [Ca+2] [Ca^2+]
- T cell activation measured by surface expression of CD69 [1]: fully restores T cell activation
- T cell activation measured by CD69 surface expression in droplets [2]: rescues Ca^2+ dependent T cell activation

- binding result [3]: binds
B1: αCD19-scFv (clone B43), VH-VL, tagged with six HA epitope tags at its C-terminus (scFv)
scFv: EVQLVQSGAEVKKPGSSVKVSCKASGYAFSSYWMNWVRQAPGQGLEWMGQIWPGDSDTNYAQKFQGRVTITADESTSTAYMELSSLRSEDTAVYYCARRETTTVGRYYYAMDYWGQGTTVTVSSGGGGSGGGGSGGGGSDIQLTQSPSFLSASVGDRVTITCKASQSVDYSGDSYLNWYQQKPGKAPKLLIYDASNLVSGVPSRFSGSGSGTEFTLTISSLQPEDFATYYCQQSTENPWTFGGGTKLEIKGAGSYPYDVPDYAGAGSYPYDVPDYAGGSYPYDVPDYAGGAGSYPYDVPDYAGAGSYPYDVPDYAGAGSYPYDVPDYAG
notes: also called αCD19-HA; B43-HA

- fold reduction in MFI compared to V5-tagged αCD20-scFv (VLVH) [4]: ~5 fold
B2: αCD19-scFv (clone B43), four-times V5-tagged (scFv)
scFv: EVQLVQSGAEVKKPGSSVKVSCKASGYAFSSYWMNWVRQAPGQGLEWMGQIWPGDSDTNYAQKFQGRVTITADESTSTAYMELSSLRSEDTAVYYCARRETTTVGRYYYAMDYWGQGTTVTVSSGGGGSGGGGSGGGGSDIQLTQSPSFLSASVGDRVTITCKASQSVDYSGDSYLNWYQQKPGKAPKLLIYDASNLVSGVPSRFSGSGSGTEFTLTISSLQPEDFATYYCQQSTENPWTFGGGTKLEIKGKPIPNPLLGLDSTGAGSGGKPIPNPLLGLDSTGAGSGGKPIPNPLLGLDSTGGAGSGGKPIPNPLLGLDSTGSGAGGSSL
notes: also called αCD19-scFv V5-tagged

B3: αCD19-scFv V5-tagged: αCD19 scFv (clone B43) with four-times V5 tag (protein)
scFv: EVQLVQSGAEVKKPGSSVKVSCKASGYAFSSYWMNWVRQAPGQGLEWMGQIWPGDSDTNYAQKFQGRVTITADESTSTAYMELSSLRSEDTAVYYCARRETTTVGRYYYAMDYWGQGTTVTVSSGGGGSGGGGSGGGGSDIQLTQSPSFLSASVGDRVTITCKASQSVDYSGDSYLNWYQQKPGKAPKLLIYDASNLVSGVPSRFSGSGSGTEFTLTISSLQPEDFATYYCQQSTENPWTFGGGTKLEIKGKPIPNPLLGLDSTGAGSGGKPIPNPLLGLDSTGAGSGGKPIPNPLLGLDSTGGAGSGGKPIPNPLLGLDSTGSGAGGSSL
- reduction in MFI [5]: about 5 fold

B4: NBV promoter: synthetic TCR responsive promoter, SEQ ID NO:50 (nucleic acid)
DNA: GAATTCAAGTACCGTGCAGGAGGAAAAACTGTTTCATACAGAAGGCGTGGGCTATGCAAATCGAAACGCTGGAAACACTGAGTAATCAGATCAAGTCATGTTTCCATTTGAATGCAAATGGATACAGAAGGCGTGGAGGAAAAACTGTTTCCTGTTCCAATAGACGCCCTTTTTGAATGCAAATGGCGAGCTCATGGGTTTCTCCACCAAGGTGACGAGTGGAAAATCTGACTCAGAATTATCCCTTGTTATGCAAATCGCCCAAAGAGGAAAATTTGTTTCATAGAACATACTGTCTCAAATAGACGCCTCCTCGAGCGTTTCCCGGGGTACC
- HA and GFP fluorescence intensities with 2 copies of promoter instead of 1 [6]: doubled
- GFP and HA reporter gene expression in sleeping beauty constructs ([7]; sleeping beauty constructs): high GFP and HA reporter gene expression
- GFP and HA median intensity compared to NFAT promoters ([7]; sleeping beauty transposon reporters in Jurkat cells, 1 μM peptide): best signal
- intensity of HA and GFP signals compared to 4×NFAT ([7]; sleeping beauty transposon system, different concentrations of cognate peptide): higher intensity of both HA and GFP signals
